Laboratory results taken from patent US20040087497A1 (Bristol-Myers Squibb, published 2004).
Starred links: 1 amine or outer side, 2 acyl side, 3 side chain; linkers in the order of their positions; H or OH if unused. Non-standard residues stand in square brackets, D forms with d. Suc = O=C(CCC(=O)[*:2])[*:1]; Dox = doxorubicin; βAla = NCCC(=O)O

Columns and labels:
Test in all cases: cell-based or functional assay
human CD10 [1] = molecular target: T1, human CD10 (human, UniProt P08473 2-750)
[2] = molecular target: Prostate Specific Antigen (PSA) (human, UniProt P07288 25-261)
human CD10 [3] = molecular target: T1, human CD10; remark: listed apart in the source
human CD10 [4] = molecular target: T1, human CD10; remark: listed apart in the source
human CD10 [5] = molecular target: T1, human CD10; remark: listed apart in the source
human CD10 [6] = molecular target: T1, human CD10; remark: listed apart in the source
human CD10 [7] = molecular target: T1, human CD10; remark: listed apart in the source
human CD10 [8] = molecular target: T1, human CD10; remark: listed apart in the source

T1 sequence (P08473 2-750): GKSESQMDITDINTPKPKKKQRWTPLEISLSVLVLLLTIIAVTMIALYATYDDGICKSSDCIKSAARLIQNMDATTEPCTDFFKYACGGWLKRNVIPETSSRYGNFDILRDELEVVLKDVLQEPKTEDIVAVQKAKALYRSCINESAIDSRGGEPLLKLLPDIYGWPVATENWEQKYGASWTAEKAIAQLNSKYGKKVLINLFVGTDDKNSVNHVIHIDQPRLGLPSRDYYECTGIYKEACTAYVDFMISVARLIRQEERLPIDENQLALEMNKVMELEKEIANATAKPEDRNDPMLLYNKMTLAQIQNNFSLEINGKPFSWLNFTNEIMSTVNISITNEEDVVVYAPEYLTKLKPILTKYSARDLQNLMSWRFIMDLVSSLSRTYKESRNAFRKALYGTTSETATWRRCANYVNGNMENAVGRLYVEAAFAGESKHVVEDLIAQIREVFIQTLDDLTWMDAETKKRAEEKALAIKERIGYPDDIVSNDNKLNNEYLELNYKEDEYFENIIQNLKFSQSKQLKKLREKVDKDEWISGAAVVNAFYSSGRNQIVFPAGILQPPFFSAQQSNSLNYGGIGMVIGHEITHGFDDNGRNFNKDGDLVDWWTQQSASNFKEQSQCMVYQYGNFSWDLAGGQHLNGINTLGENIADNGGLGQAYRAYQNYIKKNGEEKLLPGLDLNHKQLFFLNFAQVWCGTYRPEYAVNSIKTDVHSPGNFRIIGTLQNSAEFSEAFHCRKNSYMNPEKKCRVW
Prostate Specific Antigen (PSA), sequence (P07288 25-261 limits assumed): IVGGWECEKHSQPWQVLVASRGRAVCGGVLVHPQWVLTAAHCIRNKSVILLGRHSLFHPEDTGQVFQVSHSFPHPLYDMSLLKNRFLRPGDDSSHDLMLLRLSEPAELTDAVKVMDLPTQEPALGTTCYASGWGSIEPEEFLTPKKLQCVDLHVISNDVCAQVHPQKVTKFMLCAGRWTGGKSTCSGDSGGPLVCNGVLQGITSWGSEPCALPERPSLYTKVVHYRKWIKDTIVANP

Suc-Leu-Ala-Gly-Dox [Suc-Leu-Ala-Gly-Dox]
IC50, proliferation of HL60 cells with supernatant of compound-treated CHO Clone 8 (CD10 Pos.) (human CD10 [1]): > 25 µM | IC50, proliferation of HL60 cells with supernatant of compound-treated CHO Clone DB4 (CD10 Pos.) (human CD10 [1]): > 25 µM

Suc-Ile-Ala-Leu-Dox [Suc-Ile-Ala-Leu-Dox]
IC50, 3H-thymidine proliferation, 22RV1 cells (CD10- PSA+) [2]: 14000 µM | IC50, 3H-thymidine proliferation, LnCAP cells (CD10+ PSA+) (human CD10 [3]): 170 µM

Suc-[βAla]IAL-Dox [Suc-βAla-Ile-Ala-Leu-Dox]
difference between IC50 of Dox and of Suc-βAla-Ile-Ala-Leu-Dox, CD10 transfected CHO cells (human CD10 [4]): ~16 fold | IC50, 3H-thymidine proliferation, 22RV1 cells (CD10- PSA+) [2]: 10800 µM | IC50, 3H-thymidine proliferation, LnCAP cells (CD10+ PSA+) (human CD10 [3]): 150 µM | IC50 on LNCaP cells (CD10pos) with 0 nM phosphoramidon (human CD10 [5]): 0.24 µM | IC50 on LNCaP cells (CD10pos) with 30 nM phosphoramidon (human CD10 [5]): 1.3 µM | IC50 on LNCaP cells (CD10pos) with 100 nM phosphoramidon (human CD10 [5]): 3.3 µM | IC50 on LNCaP cells (CD10pos) with 300 nM phosphoramidon (human CD10 [5]): 7.7 µM | IC50 on LNCaP cells (CD10pos) with 1000 nM phosphoramidon (human CD10 [5]): 11.3 µM | IC50 on LNCaP cells (CD10pos) with 3000 nM phosphoramidon (human CD10 [5]): 15.4 µM | IC50 on Ramos cells (CD10pos) with 0 nM phosphoramidon (human CD10 [5]): 0.51 µM | IC50 on Ramos cells (CD10pos) with 30 nM phosphoramidon (human CD10 [5]): 2.1 µM | IC50 on Ramos cells (CD10pos) with 100 nM phosphoramidon (human CD10 [5]): 5.3 µM | IC50 on Ramos cells (CD10pos) with 300 nM phosphoramidon (human CD10 [5]): 8.1 µM | IC50 on Ramos cells (CD10pos) with 1000 nM phosphoramidon (human CD10 [5]): 9.7 µM | IC50 on Ramos cells (CD10pos) with 3000 nM phosphoramidon (human CD10 [5]): 10.5 µM | IC50 on LNCaP cells (CD10pos) with DL-Thiorphan 0 (human CD10 [6]): 0.51 µM | IC50 on LNCaP cells (CD10pos) with DL-Thiorphan 30 (human CD10 [6]): 2.1 µM | IC50 on LNCaP cells (CD10pos) with DL-Thiorphan 100 (human CD10 [6]): 5.3 µM | IC50 on LNCaP cells (CD10pos) with DL-Thiorphan 300 (human CD10 [6]): 8.1 µM | IC50 on LNCaP cells (CD10pos) with DL-Thiorphan 1000 (human CD10 [6]): 9.7 µM | IC50 on LNCaP cells (CD10pos) with DL-Thiorphan 3000 (human CD10 [6]): 10.5 µM | IC50 on Ramos cells (CD10pos) with DL-Thiorphan 0 (human CD10 [6]): 0.25 µM | IC50 on Ramos cells (CD10pos) with DL-Thiorphan 30 (human CD10 [6]): 0.27 µM | IC50 on Ramos cells (CD10pos) with DL-Thiorphan 100 (human CD10 [6]): 0.31 µM | IC50 on Ramos cells (CD10pos) with DL-Thiorphan 300 (human CD10 [6]): 0.28 µM | IC50 on Ramos cells (CD10pos) with DL-Thiorphan 1000 (human CD10 [6]): 0.44 µM | IC50 on Ramos cells (CD10pos) with DL-Thiorphan 3000 (human CD10 [6]): 1.1 µM | IC50, 3H thymidine proliferation, CD10 transfected CHO Clone #3 (human CD10 [7]): 19000 µM | IC50, 3H thymidine proliferation, CD10 transfected CHO Clone #5 (human CD10 [7]): 19000 µM | IC50, 3H thymidine proliferation, CD10 transfected CHO Clone #7 (human CD10 [7]): 11000 µM | IC50, 3H thymidine proliferation, CD10 transfected CHO Clone #8 (human CD10 [7]): 8400 µM | IC50, 3H thymidine proliferation, CD10 transfected CHO clone DB4 (human CD10 [7]): 4200 µM | IC50, 3H thymidine proliferation, LnCap cells (CD10 positive) (human CD10 [7]): 390 µM | IC50, 3H thymidine proliferation, Ramos cells (human CD10 [7]): 440 µM | Ratio of IC50 Suc-β-Ala-Ile-Ala-Leu/Dox, CD10 transfected CHO Clone #7 (human CD10 [8]): 17 ratio | Ratio of IC50 Suc-β-Ala-Ile-Ala-Leu/Dox, CD10 transfected CHO Clone #8 (human CD10 [8]): 15 ratio | Ratio of IC50 Suc-β-Ala-Ile-Ala-Leu/Dox, CD10 transfected CHO clone DB4 (human CD10 [8]): 14 ratio | Ratio of IC50 Suc-β-Ala-Ile-Ala-Leu/Dox, LnCap cells (human CD10 [8]): 3 ratio | IC50, proliferation of HL60 cells with supernatant of compound-treated CHO Clone 8 (CD10 Pos.) (human CD10 [1]): 2.7 µM | IC50, proliferation of HL60 cells with supernatant of compound-treated CHO Clone DB4 (CD10 Pos.) (human CD10 [1]): 5.4 µM

Suc-[βAla]LAL-Dox [Suc-βAla-Leu-Ala-Leu-Dox]
shift of IC50 on LNCaP cells treated with 100 nM of phosphoramidon (human CD10 [4]): 7 fold | IC50, 3H thymidine proliferation, CD10 transfected CHO Clone #3 (human CD10 [7]): 19000 µM | IC50, 3H thymidine proliferation, CD10 transfected CHO Clone #5 (human CD10 [7]): 24000 µM | IC50, 3H thymidine proliferation, CD10 transfected CHO Clone #7 (human CD10 [7]): 13000 µM | IC50, 3H thymidine proliferation, CD10 transfected CHO Clone #8 (human CD10 [7]): 10000 µM | IC50, 3H thymidine proliferation, CD10 transfected CHO clone DB4 (human CD10 [7]): 5400 µM | IC50, 3H thymidine proliferation, LnCap cells (CD10 positive) (human CD10 [7]): 510 µM | IC50, 3H thymidine proliferation, Ramos cells (human CD10 [7]): 840 µM
